Structures can show the parent of a compound that is named as a salt. Starred links: 1 amine or outer side, 2 acyl side, 3 side chain; linkers in the order of their positions; H or OH if unused. Positions of bridges follow the written chain, without caps; N, C: chain ends. Non-standard residues stand in square brackets, D forms with d. Residues, ends and D or L forms follow the SMILES beside them. Chains are numbered I, II in the order given. *: point of attachment. TATA = O=C(CC[*:1])N1CN(C(=O)CC[*:2])CN(C(=O)CC[*:3])C1; Dolaproine = CO[C@@H]([C@@H]1CCCN1)[C@@H](C)C(=O)O; Dil = CC[C@H](C)[C@H](NC)[C@@H](CC(=O)O)OC; X2 = O=C(CCCC(=O)[*:2])NCCC(=O)[*:1]; PABC = O=C(OCc1ccc(N[*:1])cc1)[*:2]; X1 = C[C@@H](N*)[C@@H](O)c1ccccc1; Hyp = O=C(O)[C@@H]1C[C@@H](O)CN1; hArg = N=C(N)NCCCC[C@H](N)C(=O)O; Cit = NC(=O)NCCC[C@H](N)C(=O)O; Pen = CC(C)(S)[C@H](N)C(=O)O; NMeV = CN[C@H](C(=O)O)C(C)C; Sar = CNCC(=O)O
Columns and labels:
[1] = Metabolic stability in hepatocytes; format: in vitro ADME, Humans; details: human hepatocytes, 1 μM, 0.5×10^6 cells/mL
Method: To investigate the metabolic stability of the compounds of the present invention in hepatocytes from Cynomolgus macaques and humans.
Incubations were performed in 96-well plates using an external extraction method. Several 96-well sample precipitation plates, designated T0, T15, T30, T60, T90, T0-MC, T90-MC, and blank matrix, were prepared, respectively. The recovery culture medium and incubation culture medium were removed in advance and placed in a 37° C. water bath for preheating. Frozen hepatocytes from Cynomolgus macaques and humans were removed from a liquid nitrogen tank, recovered, and diluted to 0.51×10^6 cells/mL with the incubation culture medium. […]
At the end of the incubation at the corresponding time point, the incubation plates were removed, from which 25 μL of a compound mixture with the cells was removed and added to sample plates containing 125 μL of stop buffer. […] All samples were mixed uniformly and then analyzed by the LC-MS/MS method.
The concentration of the compound of the present invention in the sample was semi-quantitatively determined by the liquid chromatography-tandem mass spectrometry (LC-MS/MS) method without a standard curve and quality control sample. […]

[2] = In vivo pharmacokinetic analysis in mice; parameters: species or system CD-1 mice; details: mouse, in vivo, CD-1 mice, single IV 2 mg/kg, plasma
Method: To test the pharmacokinetics of the compounds of the present invention in CD-1 mice
The pharmacokinetic characteristics of the compound after intravenous injection and oral administration were tested in CD-1 mice according to a standard protocol. The compound of the present invention was formulated into a clear solution using 50 mM acetate buffer (pH=5) in 10% sucrose as a vehicle. Two mice were given a single intravenous injection of 2 mg/kg of the compound to be tested. Whole blood was collected at time points of 0.083, 0.25, 0.5, 1, 2, 4, 8, and 24 hours after administration to get plasma. The concentration of the compound to be tested and the concentration of its potential metabolite MMAE were analyzed by the LC-MS/MS method, and the pharmacokinetic parameters, such as maximal concentration (Cmax), clearance (Cl), half-life (T1/2), […] (Vdss), and area under the concentration-time curve (AUC0-last), were calculated by Phoenix WinNonlin software.

SK-OV-3 = experiment: In vitro anti-proliferative activity, CellTiter-Glo; format: cell-based, Human; details: SK-OV-3, 72 h
Method: (§1) To investigate the effect of the compounds of the present invention on inhibiting cell proliferation by detecting the effect of the compounds on cell activity in vitro in tumor cell lines NCI-H1975 and SK-OV-3.
(§2) The tumor cell lines were cultured in a 37° C., no CO2 incubator and a 37° C., 5% CO2 incubator according to the culture conditions shown in Table 15, respectively. The cells were periodically passaged, and cells in a logarithmic growth phase were taken for plating.
(§3) Cells in a logarithmic growth phase were harvested and centrifuged at 1000 rpm for 3 min at room temperature. The supernatant was discarded, and the cells were resuspended in 5 mL of a culture medium. Then, 20 ul of the cell suspension was pipetted and mixed with trypan blue at 1:1 for staining for 3 min to detect cell viability and to count viable cells. The cell density was adjusted to 4000 NCI-H1975/well or 5000 SK-OV-3/well. Then, 90 μL of the cell suspension was added to each culture plate well, and a cell-free culture medium was added to blank control wells. […]
(§4) The detection was performed according to the instructions of the Promega CellTiter-Glo Luminescent Cell Viability Assay kit (Promega-G7573). The luminescence signal was detected on the En Vision® Multi-mode Plate Reader (EnVision 2104-10). […]

NCI-H1975 = experiment: as above; format: cell-based, Human; details: NCI-H1975, 72 h
Method: as §1, §2, §3, §4

In the case of `CC[C@H](C)[C@@H]([C@@H](CC(=O)N1CCC[C@H]1[C@H](OC)[C@@H](C)C(=O)N[C@H](C)[C@@H](O)c1ccccc1)OC)N(C)C(=O)[C@@H](NC(=O)[C@H](C(C)C)N(C)C(=O)OCc1ccc(NC(=O)[C@H](CCCNC(N)=O)NC(=O)[C@@H](NC(=O)CCCC(=O)NCCC(=O)N(C)CC(=O)N(C)CC(=O)N(C)CC(=O)N(C)CC(=O)N(C)CC(=O)N(C)CC(=O)N(C)CC(=O)N(C)CC(=O)N(C)CC(=O)N(C)CC(=O)N[C@H]2CCCCNC(=O)C[C@@H](C(=O)N[C@H]3CSCCC(=O)N4CN5CN(C4)C(=O)CCSC(C)(C)[C@@H](C(N)=O)NC(=O)[C@H](CCCCNC(=N)N)NC(=O)[C@H](Cc4c[nH]c6ccccc46)NC(=O)[C@@H](CC(=O)O)NC(=O)[C@@H]4CCCN4C(=O)[C@H](Cc4c[nH]cn4)NC(=O)[C@H](CC(C)C)NC(=O)[C@H](CSCCC5=O)NC(=O)[C@H](CC(C)C)NC(=O)[C@@H]4CCCN4C(=O)[C@H](CC(N)=O)NC(=O)[C@H](C(C)C)NC(=O)[C@H](CC(C)C)NC(=O)[C@@H]4C[C@@H](O)CN4C3=O)NC(=O)[C@H](CCCCNC(=N)N)NC2=O)C(C)C)cc1)C(C)C` [Acetate salt of PDC_8] (I: [Sar][Sar][Sar][Sar][Sar][Sar][Sar][Sar][Sar][Sar]K[hArg]DC[Hyp]LVNPLCLHP[dD]W[hArg][Pen]-NH2 / II: V[Cit][PABC][NMeV]V[Dil][Dolaproine]-X1; lactam I:11-I:13; linker I:14-I:21-I:28 via TATA; linker I:N-II:N via X2), the half-life [1] is reported as over 217 min, the CLint scaled ([1]; read-out: CLint (liver)) is reported as under 17.8 mL/min/kg and the AUC(0-t) [2] is reported as 0.56 µM·h. The C0 [2] was 2640 nM, the clearance [2] was 13 mL/min/kg and the half-life [2] was 12 min. For the same compound, the Vd ([2]; read-out: Vdss) was 0.19 L/kg, the IC50 (SK-OV-3) was 586 nM and the IC50 (NCI-H1975) was 79 nM.
